In the supplement of paper PMC9170038:

System: K4 kissing-loop RNA reporter
Assay: apparent KD of K4 kissing-loop reporter; higher = weaker reporter binding
Conditions: Eterna round: R107
Description: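 RNA-MaP round R107: designed RNA switches with theophylline, tryptophan, arginine or FMN aptamers are transcribed on-chip within common flanks. They are titrated with a labelled K4 kissing-loop RNA reporter in RNA-MaP buffer (100 mM Tris pH 7.5, 80 mM KCl, 4 mM MgCl2), without ligand or with the indicated ligand. Median apparent KD per design.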

[1] = input ligand: theophylline 20 uM
[2] = input ligand: tryptophan 2.4 mM
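Note: bound reporter read as fluorescence of individual clusters on recovered sequencing chips by microscopy, with normalized cluster intensities fitted with a binding model.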

| Sequence | apparent KD of K4 kissing-loop reporter (input ligand: FMN 200 uM) [nM] | apparent KD of K4 kissing-loop reporter (input ligand: arginine 13.2 mM) [nM] | apparent KD of K4 kissing-loop reporter (input ligand: none) [nM] | apparent KD of K4 kissing-loop reporter [1] [nM] | apparent KD of K4 kissing-loop reporter [2] [nM] |
| --- | --- | --- | --- | --- | --- |
| AAUAAAAUCACGGCCGCCACUGAUAUCCAUAUUAGGAGUGAUGUUCCUUUGACUAUAUAAUUUUACAGGACCGGGUGAAUAUUUA [JR_Nu_SSTryptoB_Sub027] | 104 | 143 | 120 | 131 | 90.8 |
| GACAUACCUAUGGAGGGCCGAUCGAACAAACGAGGACCGGUACGGCCGCCACUCGUGGGCAGUGAUGUUGACCCUGGGAGGUAAG | 373 | 410 | 544 | 236 | 598 |
| AGACUACCACACUGUCAAUAGACAGUGGACUAGGAUAUGCUGAUAAGCAGAAGGAGUGAUGUUCCGAGGUAGUCAAUAAAAUAAU [FmnAX 13 G28+G66] | 304 | 309 | 315 | 401 | 316 |
| GGUAUCUAUACAGAUACCAGUCGUAUAGGUCGAUUACAGGUUAGUGAUGUUAACCUGUACGACCCUUGGCAGCUGUAUAAUAAUA [Theo B Ex t2] | 62 | 60.3 | 59.9 | 51.7 | 61.9 |
| GGACGCCGGUCGGCCGCCACUCACAGCAGUGAUGUUGCUGAGCUUGUAGCGGAGUGAUGUUCCGAGAGGACCGGGACUGCAGUUU [Same State Tryptophan B GF 10] | 522 | 506 | 739 | 550 | 532 |
| UGAUAGGACAGAAGGAGCGGAAUGCUGUCCAAAAGGACAGCAAAUAUAAAAGGAGUGAUGUUCCAGGUAGGUCGCUGUCCUAUCU [ArgBX 20 #SwitchBubble #StaticStem] | 271 | 206 | 219 | 234 | 203 |
| UUUCUACCGGGAAGGAGCGUGAAUGAUAAUGGAUAUAGUGAUGUUAUAUAUACGAACGAAUCGCAGGUAGGUCGCCCGGAUCCCU [SSArgB.V] | 492 | 594 | 593 | 549 | 496 |
| UAAUGCAUGACGGCCGCCACUAGUACUGGAGUGAUGUUGUGGUACGGCGGCAAUAUAGGGUGGACUAGGACCGGGUCAUGCAUAU [KL-XTryp-B12 #analogue] | 403 | 336 | 346 | 380 | 432 |
| CUUCGAUUAACAGAUACCAGUCAUACUGGAGCCUCACUCGAGUGAGUGAUGUUCACUUGAGACCCUUGGCAGCUGUUAGUCGAAG [Theo B Ex t1a] | 92.3 | 86.2 | 89.6 | 106 | 93.4 |
| GCUAUGGUAGGAAGGAGCGCGGACGAUAUUUAUCGAGUGAUGUUCGAUUCAUUAAUUUGAACGCAGGUAGGUCGCCUACUAUAGC [Arginine B K4 29] | 138 | 148 | 160 | 134 | 161 |
| CGGUUUGGUUGAGAGGUUGGGCCGAAUGAUACCAGUAUAUAAGAAUACCCUUGGCAGCAUAAGAAAGAUAUAGUGAUGUUGUAUA [SSTheophA.J] | 475 | 537 | 495 | 513 | 507 |
| CGACCGGUAGCGGAUACCAGCCUUUGAGUGAUGUUCGAGUUGAGUUUCCGCGCGUCGAAAGGCCCUUGGCAGCCGAUACGCCUUC [theeternabot_exclusion_KL_Theo_B_14] | 236 | 192 | 207 | 187 | 188 |
| AGACUACCACACUGUCAAUAGACAGUGAACUAGGAUAUGCUGAUAAGCAGAAGGAGUGAUGUUCCUGGGUAGUCAAUAAAAUAAU [FmnAX 13 G67] | 372 | 338 | 367 | 427 | 364 |
| UGGACGUUAUACAAAUAGUAUAACUGGGAUACCAGUGACGAAAGUCACCCUUGGCAGCUCAACUGCCAGUGAUGUUGGUAGUCCA [Astros-Eli-mod#4] | 307 | 158 | 172 | 239 | 145 |
| AAGAGCUAGGCGGCCGCCACUAGAUGUGAACACAUACAAGCCAGUGAUGUUGGUAUGAUGGACAGUAGGACCGGGCCUAGCUGAA [Exclusion - Tryptophan B (Freestyle 9)] | 353 | 377 | 407 | 368 | 421 |
| UAAAUAAUUCAAGGAUAUGUUUUCUAUUUCGAGUGAUGUUCGGUCUUAAUAAAUUUAAUAGAUUAUACAGAAGGUGAUGGAUAGU [Astrostest] | 162 | 164 | 130 | 188 | 99.8 |
| CUUCGUAAAGGCCCAGUGAUGUUGGGCACUCGAGGACCGGUACGGCCGCCACUCGCUCCCUAAGUCGCGUGCGUGGGCCACCGCC [Anala] | 115 | 97 | 99.1 | 94.5 | 104 |
| AGACUACCACACUGUCAAUAGACAGUGAACUAGGAUAUGCUGAUAAGCAGAAGGAGUGAUGUUCCUAGGUAGUCAAUAAAAUAAU [FmnAX 13 #SwitchBubble #StaticStem #K4Early] | 349 | 350 | 383 | 447 | 401 |
| AGGUUUUGAUUAGGAUAUGCACUGAGGACGAGAAUAUAGUGAUGUUAUAUAAUAGGAAUUAGUAGAGUAGAAGGGAUUGAGGUUU [SSFMNB.V] | 244 | 153 | 183 | 194 | 161 |
| UUUAUAUUGUCGGCCGCCACUGGAUUAAUAUUUGUAUAAUCUAGUUCAAAGUGAUGUUUUGAGUCCAGGACCGGGACAUUUGUUA [JR_ExcTryptoB_Sub004] | 670 | 515 | 536 | 558 | 445 |
| CAAUGAGUUUAAGAUGAUAUCAUCACAGAAGGAGCGAGUGAUAACUCAGGUAGGUCGCUGAAUUUGUCGAGUGAUGUUCGAUAGA [whbob_SS_Arginine_A_sa120] | 191 | 153 | 186 | 166 | 174 |
| CCUAUCUCAUACGAUACCAGUCUAUUAAAACGAGUGAUGUUCGAAAAUUUGCCAUAUAAUGACCCUUGGCAGCGUAUGGGAUAGG [Ex Theophylline B K4 8] | 201 | 185 | 203 | 211 | 176 |

| Sequence | apparent KD of K4 kissing-loop reporter (input ligand: FMN 200 uM) [nM] | apparent KD of K4 kissing-loop reporter (input ligand: arginine 13.2 mM) [nM] | apparent KD of K4 kissing-loop reporter (input ligand: none) [nM] | apparent KD of K4 kissing-loop reporter [1] [nM] | apparent KD of K4 kissing-loop reporter [2] [nM] |
| --- | --- | --- | --- | --- | --- |
| GGAUCCACCAGUGAUGUUGGAGAAAACUUCAAGGAUAUGACGAAAGUCAGAAGGUGGUAGACUGGACAAAGUCCGGUAGGAUCCA [FmnA10 U29+A78] | 604 | 395 | 490 | 570 | 528 |
| UACAUAUAAUUAUUUCUACAUUUAUUUAGUCAGGAUAUCGAUUAAACGAGAAGGGACAAUAUCAAGUGAUGUUUGAUAAUUCAAA [JR_ExcFMNA_Sub010] | 84.6 | 127 | 75.4 | 112 | 58.6 |
| AAUUAAUGUAUAGAUUAUAUACAUUAAUCAGAGGAUAUGCAUUAUUGCAGAAGGCUGAAUGCAGUGAUGUUGCAAUAAUAAUUUA [JR_SSFMNA_Sub003] | 60.6 | 229 | 186 | 313 | 151 |
| UGUCAUUGGUCGGCCGCCACUUCAGGUCAAAGACCAGAGUGAUGUUCUUGCACAAAGUGCUUAAGAAGGACCGGGACCGAUGACU [TrypBS 14 #SwitchBubble #K4Middle] | 256 | 53.5 | 63.3 | 69.5 | 1060 |
| AACUGUCAAGGACAACAUUACUGAAGUGAUACCAGCAUCGAAAGAUGCCCUUGGCAGCACUAACUUGCAGUGAUGUUGCAAGUAA [BrourdMod 3 - Jieux - Exclusion - Theophylline A] | 207 | 165 | 184 | 202 | 190 |
| UGUCAUUGGUCGGCCGCCACUAGGACCGGGUAUAACCCAGUGAUGUUGGUAAAUACGGCCGCCACUAGGACCGGGACCGAUGACU [TrypBS 14 #DoubleAptamer #SwitchBubble #K4Middle] | 263 | 233 | 255 | 280 | 173 |
| UGAUAAUGCAGUGAUGUUGCUAGAAACGAUACCAGUUAAGAAAAGAACCCUUGGCAGCGUAAAGUGCGCUCUAAUGAGUGUGCUU [#10 K4 Theophylline A Same State] | 164 | 195 | 194 | 212 | 132 |
| AGUGAUGUUUUUUUUAAGAGUGAUGUUUUUCGAGGACCGGUACGGCCGCCACUCGAGUGAUGAGUGAGGUGUGGUGAUGUUUAGU [#09 K4 Tryptophan A Exclusion] | 287 | 279 | 351 | 316 | 205 |
| AAGCCCAGUGAUGUUGGAAGCGCGUACGAUACCAGCGAAUCGGAACGCCCUUGGCAGCGUACAGAGUUGGCGGAAGAUAGGACAG [theeternabot_sameState_KL_Theo_A_14] | 548 | 507 | 643 | 637 | 527 |
| AAGUGAUGUUGUAGUGAUGUUGUGAUGUUGCAGGAUAUAUAGUGAUGUAGAAGGGUAAGUACUGAUUUUUUUUUUGAGUGAUGUU [ccbyzrmullin] | 96.4 | 43 | 74.5 | 53.9 | 73.8 |
| GCUGAUCGUUUUCCACGAUGCGGCUAAUAAAAGGAUAUUGGUAUAUCAAGAAGGUUUGUUCUGUGUAGUGAUGUUGCACCGUGUU [theeternabot_sameState_KL_FMN_A_28] | 77.5 | 101 | 80.5 | 111 | 72.5 |
| GAUCGAUGUCAGGAUACCAGCGGAAUCGUCGGAGACUCGAGUGGAGUGAUGUUCCCAGCACGCCCUUGGCAGCCUUGUUUAAGAU [theeternabot_sameState_KL_Theo_B_19] | 312 | 199 | 318 | 404 | 310 |
| ACACGGGUCUCGGCCGCCACUCUGCCUACCACCAUUAGUGCCAGUGAUGUUGGCAGGUGAGGGCUGAGGACCGGGAGAUCCAUAC [Zaremais] | 140 | 124 | 136 | 122 | 107 |
| AGUGAUGUGGGAAGGAGCGCUACAUGACUUCAGUGAUGUUGAAGUGAUGAUUUAGUGAUGUAGCAGGUAGGUCGCCUAGAUGUUA [KL-XARG-B8] | 98.3 | 41.2 | 77.2 | 77.5 | 62.5 |
| GAUACACUUUCAGGUAUCCAGUGACUGGAUACCAGCAUGGAAACAUGCCCUUGGCAGCCAGAACUGGAAGUGAUGUUUCCAGUAA [Design7] | 215 | 166 | 195 | 214 | 199 |
| AAAGUUGAUGAGUUGGGUAUGUGUUCCGAAGGAGCGAGAUUUAUCUCAGGUAGGUCGCGGAACUUGAGUGAUGUUCAUGUAUAAA [KL-XArg-A9 #analogue] | 356 | 408 | 491 | 637 | 305 |
| AAACAUUGGUCUGAUACCAGCUUGAUCGGAAAACGAUCUGCUGGAGUGAUGUUCCAAUAAAGCCCUUGGCAGCAGACCGAUGAAA [MAT - Same State Theophlline B - Mod of Eli - D13] | 823 | 444 | 818 | 684 | 722 |
| AAAUAGAUCAGUCAACCAGUGAUGUUGGAAGGAGCGUGCGAAAGCACAGGUAGGUCGCCAGAAUAAAAUUGGCUGAUCAAAAUAA | 328 | 338 | 333 | 408 | 185 |
| GUAGCACUUGAUAGUGAUGUUAGCAAGGGCAAGGAUAUCAUCUCAAUGAGAAGGUGUCCUUGCUAACAGCUACGGGAAUAUCCCA [Omei KL FMN A Exc D v5] | 173 | 424 | 577 | 579 | 630 |
| AGAAGGUCAAAGACCUUCGUGCACACUGAUACCAGUCGCGAAAGCGACCCUUGGCAGCAGGGCAGUGAUGUUGCCAAGUGCACAA [Omei KL Theo A SS A v2] | 252 | 278 | 267 | 136 | 235 |
| UGAUUUAACUGAAGGAGCGGCAAUUGAUAAGUAAAUAUAGUGAUGUUAUAUAAGAUAGAGAGCCAGGUAGGUCGCAGAGGUAUUA [ExArgB.M] | 154 | 154 | 132 | 210 | 142 |
